Source: patent US20250382386A1 (KINTOR PHARMACEUTICAL GUANGDONG, published 2025)
Read-outs that look alike come from different tables or passages of the source.

What was measured:
[1] = target: T1, human ALK-1 on cells (CHO-K1-hALK-1 cells; HUVEC; A172) (human, UniProt P37023 22-503); assay: flow cytometry on CHO-K1-hALK-1 cells, MFI
T1 construct: whole, on cells; One entry is used for ALK-1 on the transfected CHO-K1 line and on HUVEC/A172 cells; also called CHO-K1-ALK-1 cells; CHO-K1-ALK1 cells

[2] = target: T1, human ALK-1 on cells (CHO-K1-hALK-1 …); assay: cell-based or functional assay
[3] = target: T1, human ALK-1 on cells (CHO-K1-hALK-1 …); assay: flow cytometry on CHO-K1-ALK-1 cells, MFI; detection with human PD-1-PE and PE anti-human IgG Fc antibody 'respectively'
[4] = target: T1, human ALK-1 on cells (CHO-K1-hALK-1 …); assay: cell-based or functional assay; remark: listed apart in the source
[5] = target: T1, human ALK-1 on cells (CHO-K1-hALK-1 …); assay: cell-based or functional assay; remark: listed apart in the source
[6] = target: T1, human ALK-1 on cells (CHO-K1-hALK-1 …); assay: cell-based or functional assay; remark: listed apart in the source
[7] = target: T1, human ALK-1 on cells (CHO-K1-hALK-1 …); assay: flow cytometry on CHO-K1-hALK-1 cells, MFI; VEGF 165-biotin and APC-anti-human IgG mAb added after the antibody
[8] = target: T1, human ALK-1 on cells (CHO-K1-hALK-1 …); assay: flow cytometry on CHO-K1-hALK-1 cells ('Binding affinity to CHO-ALK1'), MFI; method as for FIG. 3
[9] = target: T1, human ALK-1 on cells (CHO-K1-hALK-1 …); assay: cell-based or functional assay; remark: listed apart in the source

Binder | IC50 of blocking BMP9-induced Smad1 phosphorylation in HUVEC cells (ELISA kit) [2] | also measured
Bevacizumab (antibody, V domains shown, Bought control antibody (Biointron, B7424); also called Avastin; VEGF-A monoclonal antibody (Bevacizumab)) VH: EVQLVESGGGLVQPGGSLRLSCAASGYTFTNYGMNWVRQAPGKGLEWVGWINTYTGEPTYAADFKRRFTFSLDTSKSTAYLQMNSLRAEDTAVYYCAKYPHYYGSSHWYFDVWGQGTLVTVSS VL: DIQMTQSPSSLSASVGDRVTITCSASQDISNYLNWYQQKPGKAPKVLIYFTSSLHSGVPSRFSGSGSGTDFTLTISSLQPEDFATYYCQQYSTVPWTFGQGTKVEIK | – | binding result [1]: no binding (tested: about 50 nM)
anti-ALK-1 antibody #1 (antibody, human IgG1, kappa, L234A L235A, V domains shown) VH: QVQLQESGPGLVKPSQTLSLTCTVSGGSISSGEYYWNWIRQHPGKGLEWIGYIYYSGSTYYNPSLKSRVTISVDTSKNQFSLKLSSVTAADTAVYYCARESVAGFDYWGQGTLVTVSS VL: EIVLTQSPGTLSLSPGERATLSCRASQSVSSSYLAWYQQKPGQAPRLLIYGTSSRATGIPDRFSGSGSGTDFTLTISRLEPEDFAVYYCQGYGSFPITFGQGTRLEIKR | 5.8 nM | –
anti-ALK-1 antibody #3 (antibody, human IgG1, kappa, L234A L235A, V domains shown) VH: QVQLQESGPGLVKPSQTLSLTCTVSGGSISSGEYYWNWIRQHPGKGLEWIGYIYYSGSTYYNPSLKSRVTISVDTSKNQFSLKLSSVTAADTAVYYCARESVAGFDYWGQGTLVTVSS VL: EIVLTQSPGTLSLSPGERATLSCRASQSVSSSYLAWYQQKPGQAPRLLIYGTSSRATGIPDRFSGSGSGTDFTLTISRLEPEDFAVYYCQLYGSFPITFGQGTRLEIKR | 5.3 nM | –
anti-ALK-1 antibody #18 (antibody, human IgG1, kappa, L234A L235A, V domains shown, the rest as BM; also called #18 mutant; ALK-1 mAb (#18 mutant)) VH: QVQLQESGPGLVKPSQTLSLTCTVSGGSISSGEYYWNWIRQHPGKGLEWIGYIYYSGSTYYNPSLKSRVTISVDTSKNQFSLKLSSVTAADTAVYYCARESVAGFDYWGQGTLVTVSS VL: EIVLTQSPGTLSLSPGERATLSCRASQSVSSSYLAWYQQKPGQAPRLLIYGTSSRATGIPDRFSGSGSGTDFTLTISRLEPEDFAVYYCQAYGSWPITFGQGTRLEIKR | 8.2 nM | EC50 [3]: 1.85 nM; IC50; blocking of BMP9-induced Smad1 phosphorylation, pSmad1 ELISA assay in A172 cell line (right panel), OD 450 [4]: 2.39 nM; IC50; blocking of BMP9-induced Smad1 phosphorylation, pSmad1 ELISA assay in HUVEC (left panel), OD 450 [4]: 26.3 nM; IC50; blocking of BMP9-induced Smad1 phosphorylation, pSmad1 ELISA assay in HUVEC, OD450 [5]: 20.9 nM; IC50; blocking of BMP9-induced Smad1 phosphorylation, pSmad1 ELISA assay in HUVEC, OD450 [6]: 26.3 nM; EC50 [7]: 1.85 nM; EC50 [8]: 0.447 nM; IC50; blocking of BMP9-induced Smad1 phosphorylation, pSmad1 ELISA assay in A172 cell line, OD 450 [9]: 2.39 nM
anti-ALK-1 antibody #26 (antibody, human IgG1, kappa, L234A L235A, V domains shown) VH: QVQLQESGPGLVKPSQTLSLTCTVSGGSISSGEYYWNWIRQHPGKGLEWIGYIYYSGSTYYNPSLKSRVTISVDTSKNQFSLKLSSVTAADTAVYYCARESVAGFDYWGQGTLVTVSS VL: EIVLTQSPGTLSLSPGERATLSCRASQSVSSSYLAWYQQKPGQAPRLLIYGTSSRATGIPDRFSGSGSGTDFTLTISRLEPEDFAVYYCQVYGSVPITFGQGTRLEIKR | 12.4 nM | –
anti-ALK-1 antibody #25 (antibody, human IgG1, kappa, L234A L235A, V domains shown) VH: QVQLQESGPGLVKPSQTLSLTCTVSGGSISSGEYYWNWIRQHPGKGLEWIGYIYYSGSTYYNPSLKSRVTISVDTSKNQFSLKLSSVTAADTAVYYCARESVAGFDYWGQGTLVTVSS VL: EIVLTQSPGTLSLSPGERATLSCRASQSVSSSYLAWYQQKPGQAPRLLIYGTSSRATGIPDRFSGSGSGTDFTLTISRLEPEDFAVYYCQVYGSWPITFGQGTRLEIKR | 9.1 nM | –
anti-ALK-1 antibody #27 (antibody, human IgG1, kappa, L234A L235A, V domains shown) VH: QVQLQESGPGLVKPSQTLSLTCTVSGGSISSGEYYWNWIRQHPGKGLEWIGYIYYSGSTYYNPSLKSRVTISVDTSKNQFSLKLSSVTAADTAVYYCARESVAGFDYWGQGTLVTVSS VL: EIVLTQSPGTLSLSPGERATLSCRASQSVSSSYLAWYQQKPGQAPRLLIYGTSSRATGIPDRFSGSGSGTDFTLTISRLEPEDFAVYYCQGYGSWPITFGQGTRLEIKR | 6.3 nM | –
anti-ALK-1 antibody #9 (antibody, human IgG1, kappa, L234A L235A, V domains shown) VH: QVQLQESGPGLVKPSQTLSLTCTVSGGSISSGEYYWNWIRQHPGKGLEWIGYIYYSGSTYYNPSLKSRVTISVDTSKNQFSLKLSSVTAADTAVYYCARESVAGFDYWGQGTLVTVSS VL: EIVLTQSPGTLSLSPGERATLSCRASQSVSSSYLAWYQQKPGQAPRLLIYGTSSRATGIPDRFSGSGSGTDFTLTISRLEPEDFAVYYCQIYGSWPITFGQGTRLEIKR | 11.6 nM | –
anti-ALK-1 antibody #19 (antibody, human IgG1, kappa, L234A L235A, V domains shown) VH: QVQLQESGPGLVKPSQTLSLTCTVSGGSISSGEYYWNWIRQHPGKGLEWIGYIYYSGSTYYNPSLKSRVTISVDTSKNQFSLKLSSVTAADTAVYYCARESVAGFDYWGQGTLVTVSS VL: EIVLTQSPGTLSLSPGERATLSCRASQSVSSSYLAWYQQKPGQAPRLLIYGTSSRATGIPDRFSGSGSGTDFTLTISRLEPEDFAVYYCQFYGSWPITFGQGTRLEIKR | 5.2 nM | –
anti-ALK-1 antibody #12 (antibody, human IgG1, kappa, L234A L235A, V domains shown) VH: QVQLQESGPGLVKPSQTLSLTCTVSGGSISSGEYYWNWIRQHPGKGLEWIGYIYYSGSTYYNPSLKSRVTISVDTSKNQFSLKLSSVTAADTAVYYCARESVAGFDYWGQGTLVTVSS VL: EIVLTQSPGTLSLSPGERATLSCRASQSVSSSYLAWYQQKPGQAPRLLIYGTSSRATGIPDRFSGSGSGTDFTLTISRLEPEDFAVYYCQIYGSIPITFGQGTRLEIKR | 11.2 nM | –
anti-ALK-1 antibody #14 (antibody, human IgG1, kappa, L234A L235A, V domains shown) VH: QVQLQESGPGLVKPSQTLSLTCTVSGGSISSGEYYWNWIRQHPGKGLEWIGYIYYSGSTYYNPSLKSRVTISVDTSKNQFSLKLSSVTAADTAVYYCARESVAGFDYWGQGTLVTVSS VL: EIVLTQSPGTLSLSPGERATLSCRASQSVSSSYLAWYQQKPGQAPRLLIYGTSSRATGIPDRFSGSGSGTDFTLTISRLEPEDFAVYYCQMYGSWPITFGQGTRLEIKR | 11.1 nM | –
anti-ALK-1 antibody #28 (antibody, human IgG1, kappa, L234A L235A, V domains shown) VH: QVQLQESGPGLVKPSQTLSLTCTVSGGSISSGEYYWNWIRQHPGKGLEWIGYIYYSGSTYYNPSLKSRVTISVDTSKNQFSLKLSSVTAADTAVYYCARESVAGFDYWGQGTLVTVSS VL: EIVLTQSPGTLSLSPGERATLSCRASQSVSSSYLAWYQQKPGQAPRLLIYGTSSRATGIPDRFSGSGSGTDFTLTISRLEPEDFAVYYCQIYGSVPITFGQGTRLEIKR | 6.9 nM | –
